Laboratory results taken from publication PMC10454739, “Further Developments towards a Minimal Potent Derivative of Human Relaxin-2” (International Journal of Molecular Sciences, 2023).

Assays:
[1] = target: T1, 7BP (RXFP1 ectodomain fused to the single trans-membrane-spanning domain of CD8) (Homo sapiens, UniProt Q9HBX9); assay: Competitive binding assay with Eu3+-labeled H2 relaxin in HEK-7BP cells; settings: whole-cell competition binding vs Eu3+-labeled H2 relaxin, HEK cells expressing 7BP; one-site fit; mean ± S.E.M., n of experiments in brackets
T1 construct: contains the RXFP1 ectodomain fused to the single trans-membrane-spanning domain of CD8; expressed in transfected cells; host or cells: HEK cells (HEK-7BP)
T1 sequence (Q9HBX9 1-409 limits assumed): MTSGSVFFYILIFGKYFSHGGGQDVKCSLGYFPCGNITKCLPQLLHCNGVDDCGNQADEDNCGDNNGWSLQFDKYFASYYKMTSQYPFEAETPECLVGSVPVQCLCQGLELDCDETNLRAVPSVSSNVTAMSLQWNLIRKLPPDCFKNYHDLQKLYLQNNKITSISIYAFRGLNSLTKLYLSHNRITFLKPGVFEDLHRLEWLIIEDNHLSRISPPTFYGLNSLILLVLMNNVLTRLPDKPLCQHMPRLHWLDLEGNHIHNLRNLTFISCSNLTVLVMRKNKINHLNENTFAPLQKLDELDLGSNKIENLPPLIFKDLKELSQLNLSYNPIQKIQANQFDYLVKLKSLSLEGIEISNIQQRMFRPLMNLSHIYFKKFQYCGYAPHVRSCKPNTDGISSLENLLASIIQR
Experimental: Human embryonic kidney (HEK-293T) cells stably transfected with RXFP1 were cultured in RPMI 1640 medium supplemented with 10% fetal calf serum, 100 μg mL^−1 penicillin, 100 μg mL^−1 streptomycin, and 2 mM of L-glutamine and plated into 96-well plates pre-coated with poly-L-lysine for whole-cell binding assays (Merck, Darmstadt, Germany). Competition binding experiments using Eu^3+-labeled H2 relaxin in the absence or presence of increasing concentrations of unlabeled H2 relaxin B-chain derivatives were conducted as previously described [13]. All data are presented as the mean ± S.E.M. of the % specific binding of triplicate wells, repeated in at least three separate experiments, and curves were fitted using one-site binding curves in GraphPad Prism 9 (GraphPad Inc., San Diego, CA, USA).

RXFP1 = target: T2, RXFP1 (Homo sapiens, UniProt Q9HBX9); assay: cAMP activity assay in HEK-RXFP1 cells (pCRE β-gal reporter); type: cell-based; settings: HEK-RXFP1 cells stably transfected with pCRE β-gal reporter, 37 °C for 6 h; four-parameter fit; mean ± S.E.M., n in brackets
T2 construct: expressed in transfected cells; host or cells: HEK-293T
T2 sequence (Q9HBX9 1-757): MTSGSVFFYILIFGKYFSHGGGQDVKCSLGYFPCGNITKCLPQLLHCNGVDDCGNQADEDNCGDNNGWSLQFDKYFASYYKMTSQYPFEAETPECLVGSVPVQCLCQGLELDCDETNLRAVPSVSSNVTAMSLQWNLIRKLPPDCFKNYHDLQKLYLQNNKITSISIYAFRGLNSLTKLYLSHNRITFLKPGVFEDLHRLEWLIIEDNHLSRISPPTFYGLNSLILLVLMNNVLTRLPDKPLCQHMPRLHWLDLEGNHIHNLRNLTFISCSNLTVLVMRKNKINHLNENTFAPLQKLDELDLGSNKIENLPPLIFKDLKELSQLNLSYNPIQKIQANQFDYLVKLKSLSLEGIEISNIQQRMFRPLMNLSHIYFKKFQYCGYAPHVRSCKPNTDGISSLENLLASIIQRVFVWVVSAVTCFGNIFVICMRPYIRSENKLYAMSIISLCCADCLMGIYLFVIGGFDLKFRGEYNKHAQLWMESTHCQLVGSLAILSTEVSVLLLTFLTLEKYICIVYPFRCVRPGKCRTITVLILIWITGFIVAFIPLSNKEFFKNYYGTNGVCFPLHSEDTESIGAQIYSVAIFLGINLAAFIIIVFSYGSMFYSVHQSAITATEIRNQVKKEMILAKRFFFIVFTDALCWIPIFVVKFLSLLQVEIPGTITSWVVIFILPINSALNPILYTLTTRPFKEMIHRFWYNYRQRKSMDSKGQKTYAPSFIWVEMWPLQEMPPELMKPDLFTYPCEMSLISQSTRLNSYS
Experimental: The ability of peptide analogs to activate cAMP in HEK-RXFP1 cells stably transfected with a pCRE β-gal reporter gene construct was tested as described in detail previously [13]. Cells were stimulated with increasing concentrations of peptide analogs in parallel to H2 relaxin (positive) or media (negative) controls, then incubated at 37 °C for 6 h, after which the media were aspirated, and the cells were frozen at −80 °C overnight. The following day, cAMP-driven β-gal expression was determined in cell lysates as described [32]. Experiments were performed in triplicate at least 3 times, and data were fitted to a four-parameter sigmoidal dose–response curve using GraphPad Prism 9 to determine ligand potency (pEC50).

B13-31: N-terminally truncated single-chain H2 relaxin analog, residues 13–31 (RELVRAQIAICGMSTWSKR; Relaxin B chain; UniProt P04090 37-55, looked up, fragment)
7BP Eu-H2 pKi [1]: < 5
cAMP pEC50 (RXFP1): No activity
